In article PMC9637997:

Tests used:
[1] = target: His-tagged GMAP (truncated form, 1-490 aa); assay: GST-pulldown, quantified band intensity; details: His-GMAP truncated form (aa 1-490); N = 3; parent: est. 3.0 (est. ± 0.7 SD); read off a plot
[2] = target: GST-tagged Atg8a-WT (UniProt Q9W2S2); assay: GST-pulldown, quantified band intensity; details: GMAP truncated form (1-490 aa); N = 3; parent: est. 1.6 (est. ± 0.18 SD); read off a plot
Sequence of UniProt Q9W2S2 (Q9W2S2 entry or part of it): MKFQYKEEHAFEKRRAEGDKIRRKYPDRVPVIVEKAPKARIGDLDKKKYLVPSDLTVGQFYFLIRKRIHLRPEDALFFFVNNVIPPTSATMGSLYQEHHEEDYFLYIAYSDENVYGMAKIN

Row | Substance | response [1] | response [2]
1 | GST-tagged Atg8a-WT (from UniProt Q9W2S2) K48A; Y49A | 1 | 
2 | His-tagged GMAP (truncated form, 1-490 aa) F322A; V325A |  | 1
